Reference: patent US20240060059A1
“And” between values parts separate entries of the source, which are not always exact repeats. Equal values may be shown once.

Key:
Assay in all cases: cell-based or functional assay
[196-297]-FRB = [196-297]-FRB (UniProt P42345)
[1] = target: spHT 80 C-terminal fragment fused to FRB or FKBP
[2] = target: spHT 133 C-terminal fragment fused to FRB or FKBP
[3] = target: spHT 145 C-terminal fragment fused to FRB or FKBP
[4] = target: spHT 157 C-terminal fragment fused to FRB or FKBP
[5] = target: spHT 180 C-terminal fragment fused to FRB or FKBP

Chain of UniProt P42345 (P42345 other isoform, or with tags, fused parts or gaps limits assumed): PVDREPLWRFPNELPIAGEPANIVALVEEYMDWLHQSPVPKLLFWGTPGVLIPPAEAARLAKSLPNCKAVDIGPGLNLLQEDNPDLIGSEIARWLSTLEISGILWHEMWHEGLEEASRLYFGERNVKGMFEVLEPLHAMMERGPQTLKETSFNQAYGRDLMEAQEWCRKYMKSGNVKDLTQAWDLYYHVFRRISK

[1-195]-FKBP (from UniProt P62942 2-108)
fold fluorescence signal increase (JF646 ligand) in the presence of 50 nM rapamycin, E. coli lysates ([196-297]-FRB): 4.7 fold and > 2 fold

spHT 80 N-terminal fragment fused to FRB or FKBP
fold fluorescence signal increase (JF646 ligand) in the presence of 50 nM rapamycin, E. coli lysates [1]: > 2 fold

spHT 133 N-terminal fragment fused to FRB or FKBP
fold fluorescence signal increase (JF646 ligand) in the presence of 50 nM rapamycin, E. coli lysates [2]: > 2 fold

spHT 145 N-terminal fragment fused to FRB or FKBP
fold fluorescence signal increase (JF646 ligand) in the presence of 50 nM rapamycin, E. coli lysates [3]: > 2 fold

spHT 157 N-terminal fragment fused to FRB or FKBP
fold fluorescence signal increase (JF646 ligand) in the presence of 50 nM rapamycin, E. coli lysates [4]: > 2 fold

spHT 180 N-terminal fragment fused to FRB or FKBP
fold fluorescence signal increase (JF646 ligand) in the presence of 50 nM rapamycin, E. coli lysates [5]: > 2 fold
